According to the DeepSol protein solubility set:

Experiment: soluble on expression in E. coli; label from the status in PepcDB or PDB records

Sequence | soluble on expression in E. coli
QSKFKKYSKMPLASGMTGKDVAEKMLHDNGIYDVRVTSTPGMLTDHYNPANKTVNLSEGVYGSNSVAAAAVAAHECGHAVQHARAYAPLKMRS | not soluble
VTQPSGLKNLLRAAAGALPVVPRTDQLPNRTVTVEELPIDPANVAAYAAVTGLRYGNQVPLTYPFALTFPSVMSLVTGFDFPFAAMGAIHTENHITQYRPIAVTDAVGVRVRAENLREHRRGLLVDLVTNVSVGNDVAWHQVTTFLHQQRTSLSGEPKPPPQKKPKLPPPAAVLRITPAKIRRYAAVGGDHNPIHTNPIAAKLFGFPTVIAHGMFTAAAVLANIEARFPDAVRYSVRFAKPVLLPATAGLYVAEGDGGWDLTLRNMAKGYPHLTATVRGL | not soluble
MHLYSSDFPLMMDEKELYEKWMRTVEMLKAEGIIRSKEVERAFLKYPRYLSVEDKYKKYAHIDEPLPIPAGQTVSAPHMVAIMLEIANLKPGMNILEVGTGSGWNAALISEIVKTDVYTIERIPELVEFAKRNLERAGVKNVHVILGDGSKGFPPKAPYDVIIVTAGAPKIPEPLIEQLKIGGKLIIPVGSYHLWQELLEVRKTKDGIKIKNHGGVAFVPLIGEYGWKEHHHHHH | soluble
MGSDKIHHHHHHMTQPELTPAQRTEVELLARGRADKSRVLRDLKLPETPEAAHALLLRLGVWDEARTPYADRLRAALNAVELPVPDFDPAEERLDLTHLPTFAIDDEGNQDPDDAVGVEDLGGGLTRLWVHVADVAALVAPDSPLDLEARARGATLYLPDRTIGMLPDELVAKAGLGLHEVSPALSICLDLDPDGNAEAVDVLLTRVKVQRLAYQEAQARLEAGEEPFVTLARLARASRRLREGEGALSIDLPEVRVKADETGASVFPLPKPEMRTVVQECMTLAGWGTAIFADDNEIPLPFATQDYPTREVAGDTLPAMWARRKTLARTRFQPSPGPHHGMGLDLYAQATSPMRRYLDLVVHQQLRAFLAGRDPLSSKVMAAHIAESQMNADATRQAERLSRRHHTLRFIAAQPERVWDAVVVDRRGAQATLLIPDLAFDVQVNTPAAPGTALQVQFADIDLPQMRVRARSV | not soluble
MKREQILSLIAEIDDLLNALNMVVKEIEEKKREFSDKEPDQFILRALGSLLHDFYTIIEDIFELISSEMNGVRLDSFDWHKRLLNKMTLEIPGLRPAVISKRLKEMLDEYLRFRHVFRNVYGYLLQWERMKPLLEKAGAVYERFEEEIERFKDFLRELAEKM | not soluble
MFSGHQLKTARLSKGITQSELGRLLHVNKMTISNWEKGKNIPNEKHLNALLHLFNVTSDYFDPNYRLLTPYNQLTISNKEKVIGYSERLLNHQIDKKSKDLIDKPSQLYAYRVYESLSAGTGYSYFGDGNFDVVFYDEQLEYDFASWVFGDSMEPTYLNGEVVLIKQNSFDYDGAIYAVEWDGQTYIKKVFREDEGLRLVSLNKKYSDKFAPYSEEPRIIGKIIANFRPLEI | not soluble
MGSDKIHHHHHHMENQPNTRSMIFTLYGDYIRHYGNVIWIGSLIRFLQEFGHNEQSVRAAVSRMSKQGWIQSEKKGNKSYYSLTDQGRKRMAEAAQRIYKLEAPSWDEKWRLLIYSIPEEKRSLRDELRKELVWSGFGLLANSCWITPNPLEEQVETLIEKYEISPYVHFFCADYRGMGEPKTLIEKCWDLDEINEKYLAFIQKYSQKYVIDKNKIEKGEMSDGACFVERTLLVHEYRKFLFIDPGLPQELLPEKWLGDSAAHLFADYYRTLAEPARRFFESVFAEGNSLVKKDKEYNFLDHPFMSESQS | not soluble
MSLLERLNQDMKLYMKNREKDKLTVVRMVKASLQNEAIKLKKDSLTEDEELTVLSRELKQRKDSLQEFSNANRLDLVDKVQKELDILEVYLPEQLSEEELRTIVNETIAEVGASSKADMGKVMGAIMPKVKGKADGSLINKLVSSQLS | soluble
MLNSEKMIASLDQQDLAHAEKYFQKALKEDDADSLIALGEYLESIGFLPHAKRIYLQLADDYPELNINLAQIAAEDDAIEEAFLYLDKVSKDSPNYLSALLVMADLYDMEGLTEVAREKLLQAVGISPEPLVIFGLAEIDMSLQHFKEAIDYYAQLDNRQILELTGISTYQRIGRAYASLGKFEAAIEFLEKAVAIEYEDETVFELATLMYDQENYQKANLYFKQLETINPDYPGYEYGYALSLHEEHKTSEALRLVQQGLRKNAFDSQLLLLASQLSYELHDRQNAENYLLQAKEVAVDDEEILMRLVTLYFDAERFEEVIALNRETIDNVLTKWTIAKAYHALEQEEVALALYNEISADLAENPEFLQDYAYLLREFGQFHKAIQMATAYLRQVPDDVNMQDFLDHIKHQQSE | not soluble
MGFFDDKQDFLEETFAKYPPEGRRAAIMPLLRRVQQEEGWIRPERIEEIARLVGTTPTEVMGVASFYSYYQFVPTGKYHLQVCATLSCKLAGAEELWDYLTETLGIGPGEVTPDGLFSVQKVECLGSCHTAPVIQVNDEPYVECVTRARLEALLAGLRAGKRLEEIELPGKCGHHVHEVEVLEHHHHHH | soluble
MKVAIIGATGYGGIELIRLLEQHPYFSIASLHSFSQVGECITNVYPHFQNVLVHTLQEIDVEEIEKEAEIVFLATPAGVSAELTPKLLAVGLKVIDLSGDFRMKDPFIYEQWYKRAAAKEGVLREAVYGLSEWKRSEIQKANLIANPGCFATAALLAILPLVRSGIIEEDSIIIDAKSGVSGAGKTPTTMTHFPELYDNLRIYKVNEHQHIPEIEQMLAEWNRETKPITFSTHLIPISRGIMVTLYAKVKREMEIEQLQQLYEEAYEQSAFIRIRMQGEFPSPKEVRGSNYCDMGIAYDERTGRVTIVSVIDNMMKGAAGQAIQNANIVAGLEETTGLQHMPLYL | not soluble
MILKALPNESMPREKLLQRGPQALTDAELLAIFLRTGTQGMNVIELADFLIQDFGSLRQLFSASEQEFCQHKGLGQAKYVQLQAVLEMTQRYLAETLKRGDALTSPEQTKLYLSSILRDRQREAFYILFLDNQHRVIKDEILFEGTLDAASVYPREVVKRALHHNAAALILAHNHPSGVAEPSQADRRITRRLIDALALVDIRILDHFVIGDGESVSFAERGWI | not soluble
MHHHHHHSSGRENLYFQGQKDGIFKVMLVGESGVGKSTLAGTFGGLQGDSAHEPENPEDTYERRIMVDKEEVTLVVYDIWEQGDAGGWLRDHCLQTGDAFLIVFSVTDRRSFSKVPETLLRLRAGRPHHDLPVILVGNKSDLARSREVSLEEGRHLAGTLSCKHIETSAALHHNTRELFEGAVRQIRLRRGRNHA | soluble
MSLIPKFRAWDTYEKEMLENVTPLFDDSNSMIAIITDFQIKGSPGTSEIEIGSYDTTFNWDEFPYVIMQSTGLKDKNGVEIFEGDILVYDAPKKYAHRRSMHEIAYADGRFFWEFLDLVFCQSNILYRDGYLVIGNIHENPELLEGNEGHHHHHH | soluble
MGLSVMIMLMRSVKIKYLNLASLSNDRSADTSAAPHSPLRTRLVHPSLAFCPDVPSGKCRFAKFYGIGREPHRIRGADVLLFEGLKRVR | not soluble
MHHHHHHSSGRENLYFQGSTRGKVVLHTSLGDLDVELWARECPLACRNFVQLCLEGYYVNTIFHRVVKDFIVQGGDPTGTGRGGADTTFDGKPFDVETHPRLKFRYRGLVGVANLGRSSKDAENDERGRSLGTNGNQFFITLARADVLNNAYTLFGKVTGHTLYNLMKFNDLEVGKEDRPMTPPFIKSVDVLWNPFEDLVPRRLPDAPPAQKDERKRARAAGGRTTEGRARS | soluble
MSLSILVTGATGTIGSLVTQGLASAGADVKAMVRQPGKRDFPAGVTEVVADLTDVSSMRVALSSVRTLFLLNAVTPDEVTQALIALNLAQEAGIERIVYLSVIHADTFTNVPHFTGKYTVERMIESLDIPATILRPAYFMQNDLMVQQTIQSYSVYPMPIGSAGVSMIDARDIADVAVAELLRRDEASSALDLVTLELVGPQALTGASVAQTWSSALDREIAYGGDDVAAFEGQLASYGPGWLAYDMRLMMAGIQKFGMQAAEGAVERLEAIIGHPLRSYEGFVREATAGEGHHHHHH | soluble
MTLKTSVLALLLDNVHVLLIANPESTTQTQKLFRRVVPALMALDGVSLEARFTHYGGHAEEMVAGLTVDDFDVIIPAGGDGTVNEVINGLLGSAEGDFRNLEDLPAIAVLPTGSANVFARALGYPTDPYAAADALVELIRKNHTRTITLGTWKGDDQGTRWFAVNAGFGIDADVIARVERARSFGFAASPLLYLQVSLRAWVKTQIKPPKITVEAVDSKGHKLQKEEVPMLLASNTNPWTFLGPLPVVTNPQNSFDTGLGLFGLTSVRGFGGVAAMMHLIGVGHGRKLEKLIAKRTIAFDDAEKVTLTCDSDQRFQVDGEYEGKPTKVVLESITDAVRVYAPKTHPTPPIMNWAVHLFKHVRDFLRVRTFGI | not soluble
MSLNKKVVIGMSGGVDSSVAAYLLKEQGYDVIGVTMKLTPDDAFYTEQEGGCCSLSAVEDARRVAYRIGIPFYVVNFTDIFKEKVIDYFTEEYLNGKTPNPCIACNKYIKFDALLKKAESLGADYIATGHYCRIVEENGRYVIRKSEDEKKDQTYVMYNMTQDQLKHTLMPCGDYKKDRIREIAREIGLNVFDKKDSEEICFIPDNDHGGFIKRECPKAVKTGNFVDKEGKVLGKHKGIIYYTIGQRKGLGIATGKRVFVTNIDAMKNQVVIGEEEEIFENELISFKNNFIPFDKLTEPMEVDAKIRYNAKASKATIYPVDDENVKVKFEKPQRAITKGQSVVFYDGDLLVGGGIIKEGHHHHHH | not soluble
MEKEAFMEKLLSFMKEEAYKPLTVQELEEMLNITEAEEFKELVKALVALEEKGLIVRTRSDRYGIPEKMNLIKGKISAHAKGFAFLLPEDTSLSDVFIPPNELNTAMNGDIVMVRLNSQSSGSRQEGTVIRILERAIQRVVGTYTETRNFGFVIPDDKKITSDIFIPKNGKNGAAEGHKVVVKLTSYPEGRMNAEGEVETILGHKNDPGIDILSVIHKHGLPGEFPADAMEQASSTPDTIDEKDLKDRRDLRDQVIVTIDGADAKDLDDAVTVTKLDDGSYKLGVHIADVSHYVTENSPIDKEALERGTSVYLVDRVIPMIPHRLSNGICSLNPKVDRLTLSCEMTINSQGQVTEHEIFQSVIKTTERMTYSDVNKILVDDDEELKQKYEPLVPMFKDMERLAQILRDKRMDRGAVDFDFKEAKVLVDDEGAVKDVVIRERSVAEKLIEEFMLVANETVAEHFHWMNVPFIYRIHEEPNAEKLQKFLEFVTTFGYVVKGTAGNIHPRALQSILDAVRDRPEETVISTVMLRSMKQAKYDPQSLGHFGLSTEFYTHFTSPIRRYPDLIVHRLIRTYLINGKVDEATQEKWAERLPDIAEHTSSMERRAVDAERETDDLKKAEYMLDKIGEEFDGMISSVTNFGMFVELPNTIEGLVHVSFMTDDYYRFDEQHFAMIGERTGNVFRIGDEITVKVVDVNKDERNIDFEIVGMKGTPRRPRELDSSRSRKRGKPARKRVQSTNTPVSPAPSEEKGEWFTKPKKKKKKRGFQNAPKQKRKKKKLEHHHHHH | not soluble
MGSDKIHHHHHHMEKSYWEQAHLQLPLKYTWKISRNASTEKINVIVFLCIDGRTYPGEAAPNVRYGESVELIDLQFKHFQTVWKDSLLQDEHAYNDVLDGLKLCQSLRFALESAYVHARCDKDPAFFERYTGIKMHTSPLATSYTLPIMDPGQIQEFIQTHDLTRFDTLKIKTGKEESKELIKTASRYFDKMIRVDANEAWTDPDLLIKELEELKRIPLEFIEQPFESAQKDAYKYFKKYSKIPVIADESITFAPDLKEIKELFHGVNMKLMKAGGYREGANILLKSKELGLKTMVGCMVETTLGIRSGMWISGHSDYIDLDGSFVIDNEPFKLVSENLGRLVIKQVNFFIEKWQK | not soluble
MGSDKIHHHHHHMHNSLVRELVQAGRRTSCLGLTNGKMGIVIALFRYARLSGELTCEDVGCELLDEIYEHLDSSIPISFGSGLWGIGWGIEYLIQNSYMEGDADEVLKDIDQCAARCIHAYGMSGLSLNNGIVGLGRYILIRIIPTFLKGDTVSSAFLKEYLIYLIDWLEERLEYTNESIDDLLDFLFDLYPTGFYRTKVSVLIEKCMNRYNL | not soluble
